Data as given in patent publication US20250388669A1 (published 2025).
Where a chain is given by its changes, count along the chain named. In names and notes the source's numbering stands.

T1: B7H3 (human, UniProt Q5ZPR3 29-466, limits assumed)
T1 sequence (looked up): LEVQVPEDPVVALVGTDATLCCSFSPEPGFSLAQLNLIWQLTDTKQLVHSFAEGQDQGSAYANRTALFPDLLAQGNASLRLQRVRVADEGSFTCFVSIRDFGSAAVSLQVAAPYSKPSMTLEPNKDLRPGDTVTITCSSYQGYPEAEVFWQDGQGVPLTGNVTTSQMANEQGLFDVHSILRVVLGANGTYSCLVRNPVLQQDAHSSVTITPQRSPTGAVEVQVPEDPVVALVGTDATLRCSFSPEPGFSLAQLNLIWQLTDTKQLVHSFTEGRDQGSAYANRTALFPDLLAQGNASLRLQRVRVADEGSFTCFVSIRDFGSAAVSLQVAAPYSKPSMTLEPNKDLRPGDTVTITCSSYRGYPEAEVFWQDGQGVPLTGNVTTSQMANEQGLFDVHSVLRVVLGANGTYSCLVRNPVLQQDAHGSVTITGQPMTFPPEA

T2: B7H3 (UniProt Q5ZPR3 29-466, limits assumed)
T2 sequence (looked up): T1 sequence (looked up)

B1: Ly1963 (other)
chain 1: QVQLVQSGAEVKKPGASVKVSCKASGYTFTSYVMHWVRQKPGQGLEWIGYINPYNEGTESTDKFKGRATMTSDKSTSTVYMELSSLRSEDTAVYYCASIYYGYEGTYFGVWGQGTLVTVSSASTKGPSVFPLAPSSKSTSGGTAALGCLVKDYFPEPVTVSWNSGALTSGVHTFPAVLQSSGLYSLSSVVTVPSSSLGTQTYICNVNHKPSNTKVDKKVEPKSCGGGGSGGGGSGGGGSGGGGSEVQLVESGGGLVQPGGSLRLSCAASGFTFSTYAMNWVRQAPGKGLEWVGRIRSKYNNYATYYADSVKGRFTISRDDSKNSLYLQMNSLKTEDTAVYYCVRHGNFGNSYVSWFAYWGQGTLVTVSSGGGGSDKTHTCPPCPAPEAAGPSVFLFPPKPKDTLMISRTPEVTCVVVDVSHEDPEVKFNWYVDGVEVHNAKTKPREEQYNSTYRVVSVLTVLHQDWLNGKEYKCKVSNKALPAPIEKTISKAKGQPREPQVYTLPPSREEMTKNQVSLWCLVKGFYPSDIAVEWESNGQPENNYKTTPPVLDSDGSFFLYSKLTVDKSRWQQGNVFSCSVMHEALHNHYTQKSLSLSPGGGGGSGGGGSGGGGSGGGGSQVQLVQSGAEVKKPGASVKVSCKASGYTFAGFEMHWVRQAPGQGLEWMGAIDPKTGGTDYNQKFKDRVTMTRDTSISTAYMELSRLRSDDTAVYYCARDLGYFDVWGQGTLVTVSS
chain 2: QVQLVQSGAEVKKPGASVKVSCKASGYTFTSYVMHWVRQKPGQGLEWIGYINPYNEGTESTDKFKGRATMTSDKSTSTVYMELSSLRSEDTAVYYCASIYYGYEGTYFGVWGQGTLVTVSSASTKGPSVFPLAPSSKSTSGGTAALGCLVKDYFPEPVTVSWNSGALTSGVHTFPAVLQSSGLYSLSSVVTVPSSSLGTQTYICNVNHKPSNTKVDKKVEPKSCGGGGSGGGGSGGGGSGGGGSQAVVTQEPSLTVSPGGTVTLTCRSSTGAVTTSNYANWVQQKPGQAPRGLIGGTNKRAPWTPARFSGSLLGGKAALTITGAQAEDEADYYCALWYSNLWVFGGGTKLTVLGGGGSDKTHTCPPCPAPEAAGPSVFLFPPKPKDTLMISRTPEVTCVVVDVSHEDPEVKFNWYVDGVEVHNAKTKPREEQYNSTYRVVSVLTVLHQDWLNGKEYKCKVSNKALPAPIEKTISKAKGQPREPQVYTLPPSREEMTKNQVSLSCAVKGFYPSDIAVEWESNGQPENNYKTTPPVLDSDGSFFLVSKLTVDKSRWQQGNVFSCSVMHEALHNHYTQKSLSLSPGGGGGSGGGGSGGGGSGGGGSDIQMTQSPSSLSASVGDRVTITCRASQDIRSNLNWYQQKPGGAVKLLIYYTSRLHSGVPSRFSGSGSGTDYTLTISSLQPEDFATYFCQQSEKLPRTFGGGTKVEIR
light: EIVLTQSPATLSLSPGERATLSCRASSSVSYMHWYQQKPGQAPRPWIYATSNLASGIPARFSGSRSGTDYTLTISSLEPEDFAVYYCQQWSSNTLTFGGGTKVEIKRTVAAPSVFIFPPSDEQLKSGTASVVCLLNNFYPREAKVQWKVDNALQSGNSQESVTEQDSKDSTYSLSSTLTLSKADYEKHKVYACEVTHQGLSSPVTKSFNRGEC
notes: Tri-specific antibody: B7H3 Fabs, central CD3 Fv, terminal CD137 Fv; Flexible linker is (G4S)4
B2: Ly2279 (bispecific antibody)
heavy 1: not shown
heavy 2: QVQLVQSGAEVKKPGASVKVSCKASGYTFTSYVMHWVRQKPGQGLEWIGYINPYNEGTESTDKFKGRATMTSDKSTSTVYMELSSLRSEDTAVYYCASIYYGYEGTYFGVWGQGTLVTVSSASTKGPSVFPLAPSSKSTSGGTAALGCLVKDYFPEPVTVSWNSGALTSGVHTFPAVLQSSGLYSLSSVVTVPSSSLGTQTYICNVNHKPSNTKVDKKVEPKSCGGGGSGGGGSGGGGSGGGGSDIQMTQSPSSVSASVGDRVTITCRASQGIYSWLAWYQQKPGKAPNLLIYTASTLQSGVPSRFSGSGSGTDFTLTISSLQPEDFATYYCQQANIFPLTFGGGTKVEIKGGGGSDKTHTCPPCPAPEAAGPSVFLFPPKPKDTLMISRTPEVTCVVVDVSHEDPEVKFNWYVDGVEVHNAKTKPREEQYNSTYRVVSVLTVLHQDWLNGKEYKCKVSNKALPAPIEKTISKAKGQPREPQVYTLPPSREEMTKNQVSLSCAVKGFYPSDIAVEWESNGQPENNYKTTPPVLDSDGSFFLVSKLTVDKSRWQQGNVFSCSVMHEALHNRFTQKSLSLSPG
light: B1 light
notes: B7H3 Fabs x central CD40 Fv (TM383)
B3: TM559 (antibody, V domains shown)
VH: EVQLVESGGGLVQPGGSLRLSCAASGFTFTNYGLHWVRQAPGKGLEWVSSISPSGGVTYYRDSVKGRFTISRDNSKNTLYLQMNSLRAEDTAVYYCAKPFLGWGGANWIAHWGQGTLVTVSS
VL: DIQMTQSPSSLSASVGDRVTITCLASEDISNDLAWYQQKPGKAPKLLIYFVDRLLDGVPSRFSGSGSGTDFTLTISSLQPEDFATYYCQQSYKYPPTFGQGTKLEIK
notes: Parent mAb; also called Anti-CD40 TM559
B4: Ly1966 (other)
chain 1: QVQLQQSGAELVRPGSSVKISCKASGYAFSSYWMNWVKQRPGQGLEWIGQIWPGDGDTNYNGKFKGKATLTADESSSTAYMQLSSLASEDSAVYFCARRETTTVGRYYYAMDYWGQGTTVTVSSASTKGPSVFPLAPSSKSTSGGTAALGCLVKDYFPEPVTVSWNSGALTSGVHTFPAVLQSSGLYSLSSVVTVPSSSLGTQTYICNVNHKPSNTKVDKKVEPKSCGGGGSGGGGSGGGGSGGGGSEVQLVESGGGLVQPGGSLRLSCAASGFTFSTYAMNWVRQAPGKGLEWVGRIRSKYNNYATYYADSVKGRFTISRDDSKNSLYLQMNSLKTEDTAVYYCVRHGNFGNSYVSWFAYWGQGTLVTVSSGGGGSDKTHTCPPCPAPEAAGPSVFLFPPKPKDTLMISRTPEVTCVVVDVSHEDPEVKFNWYVDGVEVHNAKTKPREEQYNSTYRVVSVLTVLHQDWLNGKEYKCKVSNKALPAPIEKTISKAKGQPREPQVYTLPPSREEMTKNQVSLWCLVKGFYPSDIAVEWESNGQPENNYKTTPPVLDSDGSFFLYSKLTVDKSRWQQGNVFSCSVMHEALHNHYTQKSLSLSPGGGGGSGGGGSGGGGSGGGGSQVQLVQSGAEVKKPGASVKVSCKASGYTFAGFEMHWVRQAPGQGLEWMGAIDPKTGGTDYNQKFKDRVTMTRDTSISTAYMELSRLRSDDTAVYYCARDLGYFDVWGQGTLVTVSS
chain 2: QVQLQQSGAELVRPGSSVKISCKASGYAFSSYWMNWVKQRPGQGLEWIGQIWPGDGDTNYNGKFKGKATLTADESSSTAYMQLSSLASEDSAVYFCARRETTTVGRYYYAMDYWGQGTTVTVSSASTKGPSVFPLAPSSKSTSGGTAALGCLVKDYFPEPVTVSWNSGALTSGVHTFPAVLQSSGLYSLSSVVTVPSSSLGTQTYICNVNHKPSNTKVDKKVEPKSCGGGGSGGGGSGGGGSGGGGSQAVVTQEPSLTVSPGGTVTLTCRSSTGAVTTSNYANWVQQKPGQAPRGLIGGTNKRAPWTPARFSGSLLGGKAALTITGAQAEDEADYYCALWYSNLWVFGGGTKLTVLGGGGSDKTHTCPPCPAPEAAGPSVFLFPPKPKDTLMISRTPEVTCVVVDVSHEDPEVKFNWYVDGVEVHNAKTKPREEQYNSTYRVVSVLTVLHQDWLNGKEYKCKVSNKALPAPIEKTISKAKGQPREPQVYTLPPSREEMTKNQVSLSCAVKGFYPSDIAVEWESNGQPENNYKTTPPVLDSDGSFFLVSKLTVDKSRWQQGNVFSCSVMHEALHNRFTQKSLSLSPGGGGGSGGGGSGGGGSGGGGSDIQMTQSPSSLSASVGDRVTITCRASQDIRSNLNWYQQKPGGAVKLLIYYTSRLHSGVPSRFSGSGSGTDYTLTISSLQPEDFATYFCQQSEKLPRTFGGGTKVEIR
light: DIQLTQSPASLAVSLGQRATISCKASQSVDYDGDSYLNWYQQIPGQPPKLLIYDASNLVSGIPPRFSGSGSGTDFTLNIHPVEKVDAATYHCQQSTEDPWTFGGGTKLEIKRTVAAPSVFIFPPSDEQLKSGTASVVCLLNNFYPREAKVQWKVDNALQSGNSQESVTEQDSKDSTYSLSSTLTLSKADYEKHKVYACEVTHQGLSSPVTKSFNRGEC
notes: Tri-specific antibody: CD19 Fabs, central CD3 Fv, terminal CD137 Fv
B5: Ly1967 (other)
chain 1: B4 chain 1
chain 2: B4 chain 2 with R575H, F576Y
light: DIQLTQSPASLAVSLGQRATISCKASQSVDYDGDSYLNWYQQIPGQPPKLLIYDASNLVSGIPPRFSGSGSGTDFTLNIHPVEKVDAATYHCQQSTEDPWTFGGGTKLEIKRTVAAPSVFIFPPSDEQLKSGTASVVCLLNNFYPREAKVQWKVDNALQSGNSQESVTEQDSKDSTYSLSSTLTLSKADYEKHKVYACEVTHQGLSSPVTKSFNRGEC
notes: as for B4
B6: Ly2326 (bispecific antibody, human IgG1, kappa)
chain 1: QVQLQQSGAELVRPGSSVKISCKASGYAFSSYWMNWVKQRPGQGLEWIGQIWPGDGDTNYNGKFKGKATLTADESSSTAYMQLSSLASEDSAVYFCARRETTTVGRYYYAMDYWGQGTTVTVSSASTKGPSVFPLAPSSKSTSGGTAALGCLVKDYFPEPVTVSWNSGALTSGVHTFPAVLQSSGLYSLSSVVTVPSSSLGTQTYICNVNHKPSNTKVDKKVEPKSCDKTHTCPPCPAPEAAGPSVFLFPPKPKDTLMISRTPEVTCVVVDVSHEDPEVKFNWYVDGVEVHNAKTKPREEQYNSTYRVVSVLTVLHQDWLNGKEYKCKVSNKALPAPIEKTISKAKGQPREPQVYTLPPSREEMTKNQVSLWCLVKGFYPSDIAVEWESNGQPENNYKTTPPVLDSDGSFFLYSKLTVDKSRWQQGNVFSCSVMHEALHNHYTQKSLSLSPGGGGGSGGGGSGGGGSGGGGSQVQLVQSGAEVKKPGASVKVSCKASGYTFAGFEMHWVRQAPGQGLEWMGAIDPKTGGTDYNQKFKDRVTMTRDTSISTAYMELSRLRSDDTAVYYCARDLGYFDVWGQGTLVTVSS
chain 2: QVQLQQSGAELVRPGSSVKISCKASGYAFSSYWMNWVKQRPGQGLEWIGQIWPGDGDTNYNGKFKGKATLTADESSSTAYMQLSSLASEDSAVYFCARRETTTVGRYYYAMDYWGQGTTVTVSSASTKGPSVFPLAPSSKSTSGGTAALGCLVKDYFPEPVTVSWNSGALTSGVHTFPAVLQSSGLYSLSSVVTVPSSSLGTQTYICNVNHKPSNTKVDKKVEPKSCDKTHTCPPCPAPEAAGPSVFLFPPKPKDTLMISRTPEVTCVVVDVSHEDPEVKFNWYVDGVEVHNAKTKPREEQYNSTYRVVSVLTVLHQDWLNGKEYKCKVSNKALPAPIEKTISKAKGQPREPQVYTLPPSREEMTKNQVSLSCAVKGFYPSDIAVEWESNGQPENNYKTTPPVLDSDGSFFLVSKLTVDKSRWQQGNVFSCSVMHEALHNRFTQKSLSLSPGGGGGSGGGGSGGGGSGGGGSDIQMTQSPSSLSASVGDRVTITCRASQDIRSNLNWYQQKPGGAVKLLIYYTSRLHSGVPSRFSGSGSGTDYTLTISSLQPEDFATYFCQQSEKLPRTFGGGTKVEIR
light: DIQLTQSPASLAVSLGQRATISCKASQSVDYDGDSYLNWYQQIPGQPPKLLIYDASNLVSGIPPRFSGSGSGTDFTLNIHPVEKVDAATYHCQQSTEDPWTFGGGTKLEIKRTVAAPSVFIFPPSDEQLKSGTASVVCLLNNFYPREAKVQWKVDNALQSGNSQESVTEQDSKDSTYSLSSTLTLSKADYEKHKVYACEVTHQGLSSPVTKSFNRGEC
notes: CD19 Fabs, terminal CD137 Fv

Tests used:
CD3 = CD3 (human); experiment: CD3 binding, as described in Example 2 (ELISA or FCM)
CD137 = target: T3, CD137 (human, UniProt Q07011 24-186); experiment: CD137 binding, FCM or ELISA
T3 construct: In the reporter assay it is whole, on GS-H2-huCD137 cells; also called 4-1BB; huCD137

B7H3 [1] = target: T1, B7H3; experiment: ELISA or FCM (Example 2)
B7H3 [2] = target: T2, B7H3; experiment: FCM or ELISA, graded
CD40 = CD40 (UniProt P25942 21-193, limits assumed); experiment: FCM or ELISA, graded
Sequence of CD40 (P25942 21-193 limits assumed): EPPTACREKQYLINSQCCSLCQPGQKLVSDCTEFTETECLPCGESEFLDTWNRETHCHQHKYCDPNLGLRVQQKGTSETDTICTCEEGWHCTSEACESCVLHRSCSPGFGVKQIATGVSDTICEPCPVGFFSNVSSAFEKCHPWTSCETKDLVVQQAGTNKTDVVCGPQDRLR

Sequence of CD3 (human) (chain, as listed by the source): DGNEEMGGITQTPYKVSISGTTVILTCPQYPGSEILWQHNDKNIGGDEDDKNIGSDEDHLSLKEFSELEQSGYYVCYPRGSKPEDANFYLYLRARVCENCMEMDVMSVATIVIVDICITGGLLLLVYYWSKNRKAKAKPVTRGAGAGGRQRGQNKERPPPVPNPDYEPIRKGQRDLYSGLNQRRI

Binder | EC50 (CD3) | binding result (CD137) | further results
B1 | 0.74 µg/mL | binds | binding result (B7H3 [1]): binds
B2 | – | – | binding result (B7H3 [2]): binds
B3 | – | – | binding result (CD40): binds
B4 | 0.348 µg/mL | binds | –
B5 | 1.56 µg/mL | binds | –
B6 | – | binds | –
